Measurements taken from patent US7977317B2, “Compositions and methods for modulating blood-brain barrier transport” (Raptor Pharmaceutical Inc., priority 2001, dated 2011).

Key:
[1] = test system: BBCEC monolayers; test: Sucrose permeability of BBCEC monolayers (in vitro BBB model) in the presence of p97; type: cell-based, bovine
Description: FIG. 2. Effect of p97 (1 μm) on sucrose permeability with BBCECs that were preincubated for 2 hrs at 37° C. The effect of p97 at 1 μM on sucrose permeability of the in vitro BBB model was tested. The permeability coefficient (Pe) for sucrose was calculated as previously described (Dehouck, et al., J. Neurochem., 58:1790-179 (1992)) using filters coated or non-coated with BBCE cells. Briefly, coated or non-coated filters with BBCE cells were transferred to 6-well plates containing 2 ml of Ringer/Hepes per well (basolateral compartment) for 2 hrs at 37° C. In each apical (i.e., luminal) chamber, the culture medium was replaced by 1 ml Ringer/Hepes containing labeled [^14C]-sucrose. […] At the end of the experiments, amounts of the radiotracers in the basolateral (i.e., abluminal) compartment were measured in a liquid scintillation counter. The permeability coefficient (Pe) was calculated as described in FIG. 1.
FIG. 14 illustrates the stability of p97 and integrity of the BBCEC monolayers following p97 transcytosis. […] The gels were dried and scanned to quantify the amount of intact p97 that crossed the BBCEC monolayers at 37° C. and 4° C. […]
D. Sucrose permeability. The permeability coefficient for sucrose was measured to verify the endothelial permeability and the integrity and tightness of the BBCEC monolayers, as previously described, using uncoated filters or coated with endothelial cells. […]

[2] = test system: LRP1B; test: RT-PCR after p97 and RAP treatments in U-87 cells: LRP1B; type: cell-based, human; settings: 72 hours, RT-PCR (FIG. 35)
Description: FIG. 34. Effect of p97 and RAP treatments in U-87 cells. A. Cells (2×10^5) were plated onto six-multiwell microplates and grown at 37° C. under 5% CO2 with optimal culture medium supplemented with serum for 4 days. Treatment was performed in serum free medium for 72 hours. RNA isolation and RT-PCR were performed as described in the Examples. B. LRP/LRP1B was immunodetected in cells lysates as described in the Examples. […] (N=2 for p97 treatment), (n=1 for RAP treatment)
FIG. 35. Effect of p97 and RAP treatments in U-87 cells (RT-PCR). Cells (2×10^5) were plated onto six-multiwell microplates and grown at 37° C. under 5% CO2 with optimal culture medium supplemented with serum for 4 days. Treatment was performed in serum free medium for 72 hours. RNA isolation and RT-PCR were performed as described in the Examples. The amplified PCR products were electrophoresed on a 2% agarose gel and visualized under ultraviolet light. (n=2 for p97), (n=1 for RAP)
RNA extraction. Cells in six-wells plate or in 75 cm^2 plastic tissue culture flasks were grown at 37° C. under 5% CO2 with optimal culture medium to 80-90% confluence. Total cellular RNA was preserved in Trizol (Gibco BRL, Burlington, ON). The solution are frozen at −80° C. until extraction. The solution was defroze and mixed with 5:1 chloroform for 3 minutes at room temperature. The suspension was centrifugated at 12000 g at 4° C. […]

B1: p97: recombinant human melanotransferrin (p97), provided by Synapse Technologies (protein, UniProt P08582 20-709, looked up)
Melanotransferrin: GMEVRWCATSDPEQHKCGNMSEAFREAGIQPSLLCVRGTSADHCVQLIAAQEADAITLDGGAIYEAGKEHGLKPVVGEVYDQEVGTSYYAVAVVRRSSHVTIDTLKGVKSCHTGINRTVGWNVPVGYLVESGRLSVMGCDVLKAVSDYFGGSCVPGAGETSYSESLCRLCRGDSSGEGVCDKSPLERYYDYSGAFRCLAEGAGDVAFVKHSTVLENTDGKTLPSWGQALLSQDFELLCRDGSRADVTEWRQCHLARVPAHAVVVRADTDGGLIFRLLNEGQRLFSHEGSSFQMFSSEAYGQKDLLFKDSTSELVPIATQTYEAWLGHEYLHAMKGLLCDPNRLPPYLRWCVLSTPEIQKCGDMAVAFRRQRLKPEIQCVSAKSPQHCMERIQAEQVDAVTLSGEDIYTAGKTYGLVPAAGEHYAPEDSSNSYYVVAVVRRDSSHAFTLDELRGKRSCHAGFGSPAGWDVPVGALIQRGFIRPKDCDVLTAVSEFFNASCVPVNNPKNYPSSLCALCVGDEQGRNKCVGNSQERYYGYRGAFRCLVENAGDVAFVRHTTVFDNTNGHNSEPWAAELRSEDYELLCPNGARAEVSQFAACNLAQIPPHAVMVRPDTNIFTVYGLLDKAQDLFGDDHNKNGFKMFDSSNYHGQDLLFKDATVRAVPVGEKTTYRGWLGLDYVAALEGMSSQQC
Change in sucrose permeability by p97 ([1]; 1 micromolar p97 (FIG. 2)): no significant change
Clearance of sucrose in the presence of p97 ([1]; high concentration of p97 (FIG. 14c)): No significant increase
Expression of the LRP1B receptor [2]: induces the expression
